T1: RavP-N (N-terminal region of the rabies virus phosphoprotein, residues 1-152) (rabies virus, UniProt P22363 1-152)
T1 sequence: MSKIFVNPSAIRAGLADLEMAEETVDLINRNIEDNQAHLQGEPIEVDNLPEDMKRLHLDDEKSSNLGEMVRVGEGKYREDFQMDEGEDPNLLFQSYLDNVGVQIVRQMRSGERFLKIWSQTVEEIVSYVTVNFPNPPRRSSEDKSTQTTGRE

B1: LC8 from Drosophila melanogaster (natural protein, UniProt Q24117 1-89, looked up)
chain: MSDRKAVIKNADMSEEMQQDAVDCATQALEKYNIEKDIAAYIKKEFDKKYNPTWHCIVGRNFGSYVTHETRHFIYFYLGQVAILLFKSG
B2: full-length rabies virus phosphoprotein (RavP-FL, residues 1-297) (natural protein)
chain: MSKIFVNPSAIRAGLADLEMAEETVDLINRNIEDNQAHLQGEPIEVDNLPEDMKRLHLDDEKSSNLGEMVRVGEGKYREDFQMDEGEDPNLLFQSYLDNVGVQIVRQMRSGERFLKIWSQTVEEIVSYVTVNFPNPPRRSSEDKSTQTTGRELKKETTSAFSQRESQPSKARMVAQVAPGPPALEWSATNEEDDLSVEAEIAHQIAESFSKKYKFPSRSSGIFLYNFEQLKMNLDDIVKEAKNVPGVTRLAHDGSKIPLRCVLGWVALANSKKFQLLVEADKLSKIMQDDLNRYTSC

Data set [1] addresses T1, RavP-N (N-terminal region of the rabies …). Put plainly: ITC. On the technique in general: In ITC the heat of successive injections is recorded.
Data set [2] deals with B2. In words: ITC.
The data set “SEC-MALS” concerns the molecule itself. Put plainly: SEC-MALS. For orientation: SEC sorts molecules by how far they enter the pores of the column.

Usually Kd stands for the free concentration of one partner at which half of the binding sites on the other are occupied at equilibrium, for simple one-to-one binding. What is called stoichiometry N is the number of molecules, sites or subunits per partner or assembly. In turn, B1 showed a Kd in data set [1] of 30 nM. Further, in data set [2], the Kd worked out at 82 nM and the “stoichiometry N” value was found to be 1.
Turning to B2, the “stoichiometry N” value in “SEC-MALS” was found to be 2.
